Assay [1] has as its target T1, Recombinant human ADAM12 (Acro Biosystems, AD2-H5228) (human, UniProt O43184 208-708).
T1 sequence (looked up): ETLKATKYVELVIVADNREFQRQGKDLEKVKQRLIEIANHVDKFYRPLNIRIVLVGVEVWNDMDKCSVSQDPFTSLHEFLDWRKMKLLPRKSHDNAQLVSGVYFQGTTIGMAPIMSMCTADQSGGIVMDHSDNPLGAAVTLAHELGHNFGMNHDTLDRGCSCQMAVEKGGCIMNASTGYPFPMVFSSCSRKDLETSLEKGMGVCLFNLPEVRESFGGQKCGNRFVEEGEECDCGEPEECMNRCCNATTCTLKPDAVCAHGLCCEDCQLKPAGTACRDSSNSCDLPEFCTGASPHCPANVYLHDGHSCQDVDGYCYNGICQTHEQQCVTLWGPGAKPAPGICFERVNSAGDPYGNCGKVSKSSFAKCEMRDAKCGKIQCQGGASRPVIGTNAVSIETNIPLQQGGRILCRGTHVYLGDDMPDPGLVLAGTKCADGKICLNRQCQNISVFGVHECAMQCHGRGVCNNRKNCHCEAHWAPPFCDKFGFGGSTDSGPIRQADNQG
Kind of assay: ELISA, recombinant ADAM12. Here is the method:
(§1) ELISA assays were also used to test hybridoma clones, subclones and purified ADP antibodies for specificity of ADAM8 binding, i.e., binding to rHuADAM8 (Acro Biosystems, AD8-H5223) was compared to binding to closely related recombinant human ADAM proteins: […], ADAM12 (Acro Biosystems, AD2-H5228) and ADAM15 (Sino Biological, 10517-H08H). For analysis of clones and subclones, 50 μl of cell supernatants were used. A test bleed sample (1:1000) was used as a positive control. Hybridoma culture medium or a pre-bleed serum sample (1:1000) was used as a negative control. Purified mouse ADPs were assessed at 1 μg/ml vs normal mouse IgG and with a test bleed sample as a positive control. ADP binding was detected with a goat anti-mouse IgG (Fc specific)-peroxidase antibody (1:5000, Sigma-Aldrich, A0168).
(In an ELISA, binding on a coated surface is turned into a signal by an enzyme label.)

Assay [2] deals with T2, Recombinant human ADAM15 (Sino Biological, 10517-H08H) (human, UniProt Q13444 18-696).
T2 sequence (looked up): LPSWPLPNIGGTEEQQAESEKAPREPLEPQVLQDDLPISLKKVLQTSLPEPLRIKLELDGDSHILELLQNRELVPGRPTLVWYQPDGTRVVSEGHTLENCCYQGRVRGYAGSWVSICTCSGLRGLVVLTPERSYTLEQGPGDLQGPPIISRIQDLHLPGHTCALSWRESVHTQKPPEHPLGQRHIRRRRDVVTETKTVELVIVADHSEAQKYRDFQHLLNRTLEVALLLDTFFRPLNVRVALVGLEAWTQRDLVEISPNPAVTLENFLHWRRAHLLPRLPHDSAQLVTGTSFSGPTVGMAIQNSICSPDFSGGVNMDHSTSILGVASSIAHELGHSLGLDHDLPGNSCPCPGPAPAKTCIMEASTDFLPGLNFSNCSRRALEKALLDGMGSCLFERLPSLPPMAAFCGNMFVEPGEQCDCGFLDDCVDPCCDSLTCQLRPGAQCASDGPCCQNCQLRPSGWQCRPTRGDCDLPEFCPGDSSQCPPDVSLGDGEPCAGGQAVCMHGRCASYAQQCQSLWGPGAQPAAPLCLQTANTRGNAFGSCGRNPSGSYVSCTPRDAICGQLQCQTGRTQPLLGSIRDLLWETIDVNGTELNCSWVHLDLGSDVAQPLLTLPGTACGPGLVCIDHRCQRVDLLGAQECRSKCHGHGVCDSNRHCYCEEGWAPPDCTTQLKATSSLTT
The assay is described as follows: ELISA, recombinant ADAM15. As to the method:
as §1

Experimental findings from patent US20220227882A1 (TRUSTEES OF TUFTS COLLEGE, published 2022) are described below.

B1: ADP3 (antibody, IgG1, V domains shown)
VH: EVKLEESGGGLVQPGGSMKLSCAASGFTFSDAWMDWVRQSPEKGLEWVAEIRGKVNNLATYYVESVKGRFTISRDDSKSSVYLQMNSLRAEDTGIYYCLGRYDATYAMDYWGQGTSVTVSS
VL: DVVMTQTPLSLPVSLGDQASISCRSSQSLVHSDGNTYLHWYLQKPGQSPKLLIYKLSNRFSGVPDRFSGSGSGTDFTLKISRVEAEDLGVYFCSQSTHVPWTFGGGTKLEIK
In the case of B1, the binding result in assay [1] is “no binding (tested: 1 µg/ml)”.

B2: ADP2 (antibody, V domains shown)
VH: EVKLVESGGGLVQPGGSLSLSCAASGFSFPDYYMSWVRQPPGKALEWLGFIRDSANGYTTEYIASVKGRFTFSRDNSQSILYLQMNALRAEDSATYYCARYSRYYGMDYWGQGTSVTVSS
VL: SIVMTQTPKILLVSAGDRVTITCKASQTVNYDVAWYQQKPGQSPKPVIYFASNRYTGVPDRFTGSGFGTDFTFTISTVQAEDLAVYFCQQDYSAPWTFGGGTKLEIK
notes: also called mADP2; mouse ADP2
For the molecule B2, the binding result in assay [2] is given as “no binding (tested: 1 µg/ml)”.
